Assay results as given in patent US20230201308A1, “TREATMENT OF CORONAVIRUS INFECTION WITH […]” (Eiger Biopharmaceuticals, Inc., priority 2020, published 2023).
Like-named read-outs stand apart in the source and are kept apart here.

How the values were obtained:
[1] = test system: SARS-CoV-2 (2019-nCoV/USA-WA1/2020); assay type: cell-based; conditions: HAE pretreated basolaterally 24 hr
SARS-CoV-2 MA = test system: SARS-CoV-2 MA; set-up: species or system BALB/c mice; conditions: mouse, in vivo, sc
SARS-CoV-2 = test: Second trial: outpatients with mild to moderate COVID-19, SARS-CoV-2 RNA viral load and clearance; assay type: in vivo, human
Description: Using the methods and criteria described above in Examples 1-3, a second trial was performed to assess interferon lambda for immediate antiviral therapy at diagnosis in COVID-19 infections. The second trial included a randomized trial of pegylated interferon lambda in outpatients with mild to moderate COVID-19 infection.
Thirty participants were randomly assigned to receive 180 mcg pegylated interferon lambda-1a, and 30 participants were assigned to receive a saline placebo. Patients were followed for 14 days. Nasopharyngeal samples were collected. The baseline SARS-CoV-2 viral load in the interferon lambda group was 6.2 log10 copies/mL and was 4.9 log10 copies/mL in the placebo group. In the interferon lambda group (19 subjects) and placebo (16 subjects) groups, there were a total of 35 subjects with viral loads great or equal to 6 log10 copies/mL.

[2] = Third trial (TOGETHER): treatment emergent adverse events and drug adherence; assay type: in vivo, human
Description: An adverse event (AE) is any adverse change from the participant's baseline (pre-treatment) condition, including intercurrent illness which occurs during the course of the trial, after the consent form has been signed, whether the event is considered related to treatment or not.
A serious adverse event (SAE) is any adverse event that at any dose: • results in death (grade 5 event) • is life-threatening (grade 4 event) • requires inpatient hospitalization or prolongation of existing hospitalization • results in persistent or significant disability or incapacity • is a congenital anomaly/birth defect
Study personnel collected outcome data via in-person, and via telephone or WhatsApp using video-teleconferencing on Days 1, 2, 3, 4, 5, 7, 10, 14, and 28. Adverse events were recorded at the time they occurred. All serious and non-serious adverse events were reported to study personnel as per local regulatory requirements. Reportable adverse events included serious adverse events, adverse events resulting in study medication discontinuation, and adverse events assessed as possibly related to study medication.

[3] = baseline RNA above 10^6 copies/mL
[4] = baseline viral load below 10^6 copies/mL
[5] = ITT preliminary, n=916 vs placebo 1020

B1: pegylated interferon lambda-1a (protein)
chain: MKPTTTGKGCHIGRFKSLSPQELASFKKARDALEESLKLKNWSCSSPVFPGNWDLRLLQVRERPVALEAELALTLKVLEAAAGPALEDVLDQPLHTLHHILSQLQACIQPQPTAGPRPRGRLHHWLHRLQEAPKKESAGCLEASVTFNLFRLLTRDLKYVADGNLSLRTSTHPEST
modifications: PEG
notes: 180 mcg subcutaneous injection
SARS-CoV-2 infectious virus production (titer of apical washes, plaque assay) ([1]; […]): reducing viral load in infected cells
SARS-CoV-2 infectious virus production (titer of apical washes, plaque assay) ([1]; […];, listed as peg-IFN-λ1): potent dose dependent reduction
SARS-CoV-2 MA replication in the lung (lung viral titer) (SARS-CoV-2 MA): significantly diminished
viral titer in the nasal turbinates (SARS-CoV-2 MA): did not alter
OR of response (clearance) at Day 7 vs Placebo (SARS-CoV-2; Adjusted for Asymptomatic at baseline, all patients): 2.91
OR of response (clearance) at Day 7 vs Placebo (SARS-CoV-2; Adjusted for Asymptomatic at baseline, ≥10E6 copies/mL): 0.00
OR of response (clearance) at Day 7 vs Placebo (SARS-CoV-2; Adjusted for BMI, all patients): 2.37
OR of response (clearance) at Day 7 vs Placebo (SARS-CoV-2; Adjusted for BMI, ≥10E6 copies/mL): 6.73
OR of response (clearance) at Day 7 vs Placebo (SARS-CoV-2; Adjusted for IFNL4 genotype, all patients): 2.24
OR of response (clearance) at Day 7 vs Placebo (SARS-CoV-2; Adjusted for IFNL4 genotype, ≥10E6 copies/mL): 7.66
OR of response (clearance) at Day 7 vs Placebo (SARS-CoV-2; Adjusted for age, all patients): 2.48
OR of response (clearance) at Day 7 vs Placebo (SARS-CoV-2; Adjusted for age, ≥10E6 copies/mL): 9.42
OR of response (clearance) at Day 7 vs Placebo (SARS-CoV-2; Adjusted for comorbidity, all patients): 2.35
OR of response (clearance) at Day 7 vs Placebo (SARS-CoV-2; Adjusted for comorbidity, ≥10E6 copies/mL): 10.46
OR of response (clearance) at Day 7 vs Placebo (SARS-CoV-2; Adjusted for sex, all patients): 2.36
OR of response (clearance) at Day 7 vs Placebo (SARS-CoV-2; Adjusted for sex, ≥10E6 copies/mL): 6.44
OR of response (clearance) at Day 7 vs Placebo (SARS-CoV-2; Adjusted for viral load at baseline, all patients): 4.12
OR of response (clearance) at Day 7 vs Placebo (SARS-CoV-2; Adjusted for viral load at baseline, ≥10E6 copies/mL): 8.16
OR of response (clearance) at Day 7 vs Placebo (SARS-CoV-2; Adjusted for viral load with interaction, baseline 10E3 copies/mL): 1.45
OR of response (clearance) at Day 7 vs Placebo (SARS-CoV-2; Adjusted for viral load with interaction, baseline 10E4 copies/mL): 1.88
OR of response (clearance) at Day 7 vs Placebo (SARS-CoV-2; Adjusted for viral load with interaction, baseline 10E5 copies/mL): 2.43
OR of response (clearance) at Day 7 vs Placebo (SARS-CoV-2; Adjusted for viral load with interaction, baseline 10E6 copies/mL): 3.14
OR of response (clearance) at Day 7 vs Placebo (SARS-CoV-2; Adjusted for viral load with interaction, baseline 10E7 copies/mL): 4.05
OR of response (clearance) at Day 7 vs Placebo (SARS-CoV-2; Adjusted for viral load with interaction, baseline 10E8 copies/mL): 5.23
OR of response (clearance) at Day 7 vs Placebo (SARS-CoV-2; Adjusted for viral load with interaction, baseline 10E9 copies/mL): 6.76
OR of response (clearance) at Day 7 vs Placebo (SARS-CoV-2; Crude, all patients): 2.32
OR of response (clearance) at Day 7 vs Placebo (SARS-CoV-2; Crude, ≥10E6 copies/mL at baseline): 6.25
viral load decline greater than in placebo group (SARS-CoV-2; Day 3, all patients): 0.82 log copies/mL
viral load decline greater than in placebo group (SARS-CoV-2; Day 5, all patients): 1.67 log copies/mL
viral load decline greater than in placebo group (SARS-CoV-2; Day 7, all patients): 2.42 log copies/mL
viral load decline greater than in placebo group (SARS-CoV-2; Day 14, all patients): 1.77 log copies/mL
median time to viral clearance (SARS-CoV-2; [3]): 7 (95% CI 6.2-7.8) days
undetectable at Day 7, participants (SARS-CoV-2; [3]): 15 of 19
undetectable at Day 7, proportion (SARS-CoV-2; [3]): 79%
OR undetectable at Day 7 vs placebo (SARS-CoV-2; [4]): 0.35
undetectable at Day 7, participants (SARS-CoV-2; [4]): 9 of 11
undetectable at Day 7, proportion (SARS-CoV-2; [4]): 82%
negative for SARS-CoV-2 RNA, participants (SARS-CoV-2; by Day 7, all patients): 24/30
negative for SARS-CoV-2 RNA, proportion (SARS-CoV-2; by Day 7, all patients): 80%
viral level decrease in absolute terms (SARS-CoV-2; by Day 7, all patients): 5.5 log copies/mL
viral load decline (SARS-CoV-2; by Day 7, baseline viral load at or above 10E6 copies/mL): 7.17 log copies/mL
detectable virus at Day 7, participants (SARS-CoV-2; high baseline viral load): 4 of 19
detectable virus at Day 7, proportion (SARS-CoV-2; high baseline viral load): 21%
OR of response at Day 7 for viral load at baseline within the IFN Lambda group (SARS-CoV-2; interaction model, all patients): 0.82
shedding of infectious virus at day 7 (SARS-CoV-2; interferon lambda group): all subjects were below the level of shedding infectious virus at day 7
TEAE, Grade 1, % of patients [2, 5]: (1.7%)
TEAE, Grade 1, RR (95% CrI) vs placebo [2, 5]: 0.75 (0.40, 1.38)
TEAE, Grade 2, % of patients [2, 5]: (9%)
TEAE, Grade 2, RR (95% CrI) vs placebo [2, 5]: 1.00 (0.75, 1.33)
TEAE, Grade 3, % of patients [2, 5]: (2.2%)
TEAE, Grade 3, RR (95% CrI) vs placebo [2, 5]: 0.70 (0.40, 1.20)
TEAE, Grade 4, % of patients [2, 5]: (0.8%)
TEAE, Grade 4, RR (95% CrI) vs placebo [2, 5]: 1.11 (0.41, 3.05)
TEAE, Grade 5, % of patients [2, 5]: (0.3%)
TEAE, Grade 5, RR (95% CrI) vs placebo [2, 5]: 0.88 (0.21, 3.40)
Number experiencing TEAEs: % ([2]; N = 931): (14.7%)
Number experiencing TEAEs: n ([2]; N = 931): 137
Number experiencing possibly treatment-related TEAS: % ([2]; N = 931): (0.4%)
Number experiencing possibly treatment-related TEAS: n ([2]; N = 931): 4
Number experiencing serious TEAEs: % ([2]; N = 931): (3.4%)
Number experiencing serious TEAEs: n ([2]; N = 931): 32
TEAE, Grade 1: % ([2]; N = 931): (2.9%)
